The source of these data is US20230002500A1 (BEIGENE, published 2023).

Test [1] concerns the target T1, recombinant OX40 protein with a His tag (Cat: 10481-H08H, Sino Biological) (UniProt P43489 29-216).
T1 construct: Bought protein; not shown: His tag
T1 sequence (looked up): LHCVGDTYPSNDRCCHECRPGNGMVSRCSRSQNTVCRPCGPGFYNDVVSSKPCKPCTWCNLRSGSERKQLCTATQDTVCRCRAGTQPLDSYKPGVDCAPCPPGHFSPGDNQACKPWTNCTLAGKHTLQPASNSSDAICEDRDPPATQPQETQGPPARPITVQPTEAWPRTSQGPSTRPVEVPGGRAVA
Description: SPR (BIAcore T-200), antibody captured by anti-human IgG, OX40-His flowed; Test 1. The text has this: (§1) The anti-OX40 antibodies were characterized for their binding kinetics and affinity by SPR assays using BIAcore™ T-200 (GE Life Sciences). Briefly, anti-human IgG antibody was immobilized on an activated CM5 biosensor chip (Cat: BR100530, GE Life Sciences). An antibody with human IgG Fc region was flowed over the chip surface and captured by anti-human IgG antibody. Then a serial dilution of recombinant OX40 protein with a His tag (Cat: 10481-H08H, Sino Biological) was flowed over the chip surface and changes in surface plasmon resonance signals were analyzed to calculate the association rates (ka) and dissociation rates (kd) by using the one-to-one Langmuir binding model (BIA Evaluation Software, GE Life Sciences). The equilibrium dissociation constant (KD) was calculated as the ratio kd/ka.

Test [2] concerns the target T1, recombinant OX40 protein with a His tag …. Description: SPR (BIAcore T-200), antibody captured by anti-human IgG, OX40-His flowed; Test 2.
Excerpt: as §1
For orientation: SPR reads the build-up and loss of mass on a sensor chip optically.

Test [3] addresses T2, full-length human OX40 expressed on HuT78 cells (HuT78/OX40) (human, UniProt P43489 29-277).
T2 sequence: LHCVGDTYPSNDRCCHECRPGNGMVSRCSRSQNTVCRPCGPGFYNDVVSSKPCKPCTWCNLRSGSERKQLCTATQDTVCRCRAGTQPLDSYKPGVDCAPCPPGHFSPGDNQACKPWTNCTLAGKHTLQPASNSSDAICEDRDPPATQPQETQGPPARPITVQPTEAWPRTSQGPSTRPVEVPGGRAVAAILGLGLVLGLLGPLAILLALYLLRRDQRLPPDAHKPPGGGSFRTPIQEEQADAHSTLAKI
Description: cell-based or functional assay.

In test [4] the target is T1, recombinant OX40 protein with a His tag …. The test is described as follows: Biacore SPR (set-up not named on the sheet; by Example 4 antibody captured, OX40-His flowed).

B1: 445-3 IgG4 (445-3 with the Fc domain of human IgG4 with S228P and R409K mutations) (antibody, V domains shown)
VH: QVQLVQSGAEVKKPGSSVKVSCKASGYKFTSYIIHWVRQAPGQGLEWMGYINPYNEGTRYNQKFQGRVTLTADKSTSTAYMELSSLRSEDTAVYYCARGYYGSSYAMDYWGQGTTVTVSS
VL: DIQMTQSPSSLSASVGDRVTITCRASQGISNYLNWYQQKPDGAIKLLIYDASTLYSGVPSRFSGSGSGTDFTLTISSLQPEDFATYYCQQYSKLPYTFGGGTKVEIK
With B1, in test [1], the koff (in general, the first-order rate constant of dissociation) is 0.00161 s⁻¹ and the on-rate (kon) (commonly the rate constant with which the complex forms) came out at 161000 M⁻¹ s⁻¹.

B2: humanized anti-OX40 monoclonal antibody 445-3 (antibody, V domains shown)
VH: B1 VH
VL: B1 VL
notes: Human IgG1 wild type format
As for B2, the koff in test [1] amounted to 0.00167 s⁻¹; in test [2] it was 0.00159 s⁻¹; in test [4], 0.00148 s⁻¹. In addition, the kon in test [1] worked out at 182000 M⁻¹ s⁻¹; in test [2], 163000 M⁻¹ s⁻¹; in test [4], 174000 M⁻¹ s⁻¹. Further, the “ADCC, LDH release, NK92MI/CD16V effector cells and HuT78/OX40 target cells, EC50” value in test [3] was 27 ng/mL. Also, the “IL-2 production of HuT78/OX40 cells co-cultured with HEK293/OS8Low-FcγRI cells (ELISA), EC50” value in test [3] is 0.06 ng/mL.
